Publication PMC4349660

Experiments:
[1] = target: Glycophorin A, native, on intact unmodified human erythrocytes (human (endogenous in erythrocytes)) (UniProt P02724); experiment: backscattering interferometry (BSI); free solution, label-free; intact erythrocytes at 0.1% haematocrit in 0.01% BSA-PBS, PfEBA175 dilution series up to 1 μM, 1 h at room temperature; reference: neuraminidase-treated erythrocytes, subtracted; square hyperbolic fit
[2] = target: Basigin, native, on intact unmodified human erythrocytes (human (endogenous in erythrocytes)); experiment: backscattering interferometry (BSI); free solution, label-free; intact erythrocytes at 0.1% haematocrit in 0.01% BSA-PBS, PfRH5 dilution series up to 4.5 μM, 1 h at room temperature; reference: erythrocytes pre-incubated with 10 μg/mL anti-BSG antibody MEM-M6/6, subtracted; square hyperbolic fit

| Substance | Kd [1] [nM] | Kd [2] [nM] |
| --- | --- | --- |
| PfEBA175, entire ectodomain, monomeric Cd4-tagged recombinant protein (ligand) | 50 | – |
| PfRH5, entire ectodomain, Cd4-tagged monomer (ligand) | – | 1100 |
